The subject of this test is SJL mice. As to the kind of experiment: PLP139-151/CFA R-EAE with Treg inactivation by anti-CD25. It is filed as in vivo, mouse. Here is the method:
In two studies, EAE was induced in SJL mice via PLP139-151/CFA priming as described under Methods, below. The mice were divided into 4 and 8 groups in Study I and Study II, respectively groups (n=10/treatment group). In both studies, groups 1-4 the mice received two injections separated by one day, of either Control Ab or anti-CD25 (clone 7D4 at 500 μg/injection i.p. (BioXCell Cat# BE0013; West Lebanon, N.H.)) starting at the onset of disease remission (Day +19 and 21 in Study I or Day +20 and 22 in Study II), followed by treatment with either mIgG2a Control Ig or C1ORF32 ECD-Fc (100 ug/dose; 3×/wk; 2 wks) beginning on the day of the second treatment with anti CD25 (Day 21 in study I and day 22 in study II).
To study the importance of Treg function for maintenance of tolerance by C1ORF32 ECD-Fc a second set of mice was set in study II, groups 5-8, in which mice were treated with Control Ig or C1ORF32 ECD-Fc (SEQ ID NO:42) first in a similar regimen as groups 1-4 (beginning on Day +22), and then two weeks following the last C1ORF32 ECD-Fc (SEQ ID NO:42) treatment, on days 46 and 48, mice received either Control Ab or anti-CD25 (500 μg/injection) to inactivate the Treg cells. The mice were followed for the level of disease severity.
Study I Treatment Groups (n=10 Mice Per Group) 1. Control Ab (Day +19 and 21) plus Control Ig (100 ug/dose; 3×/wk; 2 wks; beginning on Day +21) 2. Anti-CD25 Ab (Day +19 and 21) plus Control Ig (100 ug/dose; 3×/wk; 2 wks; beginning on Day +21) 3. Control Ab (Day +19 and 21) plus C1ORF ECD-Fc (SEQ ID NO:42) (100 ug/dose; 3×/wk; 2 wks; beginning on Day +21) 4. Anti-CD25 Ab (Day +19 and 21) plus C1ORF ECD-Fc (SEQ ID NO:42) (100 ug/dose; 3×/wk; 2 wks; beginning on Day +21) Study II Treatment Groups (n=10 Mice Per Group) 1. Control Ab (Day +20 and 22) plus Control Ig (100 ug/dose; 3×/wk; 2 wks; beginning on Day +22) 2. Anti-CD25 Ab (Day +20 and 22) plus Control Ig (100 ug/dose; 3×/wk; 2 wks; beginning on Day +22) 3. Control Ab (Day +20 and 22) plus C1ORF32 ECD-Fc (SEQ ID NO:42) (100 ug/dose; 3×/wk; 2 wks; beginning on Day +22) 4. Anti-CD25 Ab (Day +20 and 22) plus C1ORF32 ECD-Fc (SEQ ID NO:42) (100 ug/dose; 3×/wk; 2 wks; beginning on Day +22) 5. Control Ig (100 ug/dose; 3×/wk; 2 wks; beginning on Day +22) plus Control Ab (Day +46 and 48) 6. […]
SJL mice were primed with 50 μg PLP139-151/CFA to induce R-EAE, and followed for disease through the acute phase of disease and into disease remission. […] Clinical results are expressed as the mean clinical score.
Mice were followed for disease and scored on a 0-5 scale per standard lab protocol as follows: 0, no abnormality; 1, limp tail; 2, limp tail and hind limb weakness; 3, hind limb paralysis; 4, hind limb paralysis and forelimb weakness; and 5, moribund.

The text below walks through data of patent publication US20170275344A1, “POLYPEPTIDES AND USES THEREOF AS A DRUG FOR TREATMENT OF AUTOIMMUNE DISORDERS” (Compugen Ltd., priority 2014, published 2017).

B1: C1ORF32 ECD-Fc (SEQ ID NO:42): fusion protein of human C1ORF32 ECD fused to mouse immunoglobulin Fc (human-mouse fusion protein) (protein)
chain: LQVTVPDKKKVAMLFQPTVLRCHFSTSSHQPAVVQWKFKSYCQDRMGESLGMSSTRAQSLSKRNLEWDPYLDCLDSRRTVRVVASKQGSTVTLGDFYRGREITIVHDADLQIGKLMWGDSGLYYCIITTPDDLEGKNEDSVELLVLGRTGLLADLLPSFAVEIMGSENLYFQGSGEPRGPTIKPCPPCKCPAPNLLGGPSVFIFPPKIKDVLMISLSPIVTCVVVDVSEDDPDVQISWFVNNVEVHTAQTQTHREDYNSTLRVVSALPIQHQDWMSGKEFKCKVNNKDLPAPIERTISKPKGSVRAPQVYVLPPPEEEMTKKQVTLTCMVTDFMPEDIYVEWTNNGKTELNYKNTEPVLDSDGSYFMYSKLRVEKKNWVERNSYSCSVVHEGLHNHHTTKSFSRTPGK
modifications: Fusion protein human C1ORF32-ECD fused to mouse IgG2a Fc
Consider B1, for which the “relapsing EAE disease” value (Study I, Control Ab, 100 ug/dose 3x/wk 2 wks from Day +21) is listed as “abrogated”. The disease severity result (Study I, treatment starting after anti-CD25 (Day +19 and 21), vs anti CD25 + control Ig) is “significant decrease in disease severity”. Also, under “Study II, anti-CD25 on days 20 and 22, before treatment from day 22”, the disease symptoms result is “completely inhibited diseases symptoms”. Also, the “disease course after late Treg inactivation” value (Study II, anti-CD25 on days 46 and 48, 2 weeks after completion of treatment) is given as “immediate relapse which was alleviated as the effect of anti-CD25 dropped off”.
